Results taken from the supplement of paper PMC10126150.
± gives the standard deviation of the averaged measurements.

Tested on: ATP
Experiment: switch fluorescence ratio, 500 uM ATP over buffer (Cy3 cluster intensity, sum of 5 cycles each) (fold (ratio)); higher = stronger signal-on switching upon ATP binding; sequences stand for … in TCGTCGGCAGCGTCAGATGTGTATAAGAGACAGTTTTTTTTTTTTTTTTTTTTTTTTT…TC
Conditions: aptamer strand: ATP DNA aptamer (quencher-CACCTGGGGGAGTATTGCGGAGGAAGG + anchor), 100 nM annealed; ATP concentration: 500 uM
Outline: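 The fluorescence ratio divides summed target-cycle Cy3 intensity by summed buffer-cycle Cy3 intensity for each cluster and is averaged per switch-domain sequence. Cy3-labelled switching-strand clusters on a modified Illumina MiSeq flow-cell were annealed to 100 nM quencher-labelled ATP aptamer, then imaged in selection buffer and again after 15 min with 500 uM ATP at 22 °C. Five such cycles were run, with NaOH stripping and re-annealing between them, and clusters outside 100-1000 RFU were excluded.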
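Note: ATP exposure 15 min at 22 °C before imaging.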

Row | Sequence | switch fluorescence ratio
1 | CTTTAGGGTG | 1.06 ± 0.047
2 | GTGTTAGTAT | 1.02 ± 0.031
3 | ATCATGTGTA | 1.01 ± 0.04
4 | GGGCTAAAAC | 0.971 ± 0.035
5 | AGGGTTATGC | 0.984 ± 0.031
6 | CTCTTTAGCG | 1.01 ± 0.025
7 | TGTTGCGCTA | 1.02 ± 0.029
8 | TGTATTTTGT | 0.976 ± 0.022
9 | TGGATTGACT | 1.058 ± 0.0013
10 | ATACTTATTT | 1.03 ± 0.018
11 | GCAGATCGGT | 0.967 ± 0.019
12 | ATTTCTTTTT | 1.03 ± 0.0055
13 | AAAAACGTCA | 1.003 ± 0.0045
14 | AATTAGACGG | 1.03 ± 0.046
15 | AGTAACATAT | 0.993 ± 0.012
16 | ATAGGTAGGT | 0.996 ± 0.004
17 | ACATATCCGT | 1.01 ± 0.021
18 | AGGGTCGGGC | 1.027 ± 0.0061
19 | ATTTTTACTC | 1.01 ± 0.029
20 | CAGATATTAC | 1.06 ± 0.035
21 | CATTCGTCGA | 1.2 ± 0.04
22 | GCACGCGGCT | 1.02 ± 0.019
23 | ATAGGAATTT | 0.993 ± 0.021
24 | TCTAGGGGTG | 1.03 ± 0.025
25 | AAGATGTCGT | 1.022 ± 0.0014

Row | Sequence | switch fluorescence ratio
26 | AGCCAGTTTT | 0.9892 ± 0.0073
27 | AATTTATGGG | 0.986 ± 0.021
28 | TGTTTTGCGG | 0.9696 ± 0.0063
29 | GATCGGCTTG | 0.984 ± 0.013
30 | TAGGGTAAGG | 0.97 ± 0.035
31 | GAAGGGAGAG | 0.993 ± 0.031
32 | TATAATCCCT | 1.02 ± 0.083
33 | GCACGGGGAT | 1.02 ± 0.033
34 | CATTTTTTT | 0.99009 ± 0.00046
35 | GTTCAGGGCT | 1.01 ± 0.02
36 | TTTTCCGTTT | 1.02 ± 0.032
37 | ACATAATATT | 1.06 ± 0.036
38 | ATACGAGTGC | 1.01 ± 0.012
39 | GAAAAAGAGG | 0.985 ± 0.019
40 | CAGAGGGGGT | 0.988 ± 0.017
41 | TCGGGTAAGT | 1.01 ± 0.077
42 | GTAGGGCATG | 0.96 ± 0.026
43 | CCATGATTTG | 0.9922 ± 0.0042
44 | GCGATGAATC | 1.04 ± 0.04
45 | CACGAGGAGG | 0.9809 ± 0.0055
46 | CTTTAATGTT | 0.988 ± 0.037
47 | AAGTTCTATA | 1.01 ± 0.043
48 | GGGCCTGGAG | 1.012 ± 0.0086
49 | TCATTGTTGG | 1 ± 0.023
50 | TTTTGCTTCT | 1.03 ± 0.02
